The record followed here is PMC7187349, “Preparative and Kinetic Analysis of β‐1,4‐ and β‐1,3‐Glucan Phosphorylases Informs Access to Human Milk Oligosaccharide Fragments and Analogues Thereof” (Chembiochem, 2019).

Common to all, as to experiment: phosphorylase kinetics, synthetic direction
Holding throughout (assay type): biochemical, Acetivibrio thermocellus
Common to all, as to conditions: acceptor cellobiose (1), matched acceptor; apparent

Substrate in data set [1]: O=P(O)(O)O[C@H]1O[C@H](CO)[C@@H](O)[C@H](O)[C@H]1O
From the text:
(§1) phosphorylase kinetics, synthetic direction on cellodextrin phosphorylase (CDP)

Substrate in data set [2]: N[C@H]1[C@@H](OP(=O)(O)O)O[C@H](CO)[C@@H](O)[C@@H]1O
Description: as §1

Substrate in data set [3]: O=P(O)(O)O[C@H]1O[C@H](CO)[C@H](O)[C@H](O)[C@H]1O
Description: as §1

B1: cellodextrin phosphorylase (CDP) (Acetivibrio thermocellus) (protein)
chain: MITKVTARNNKITPVELLNQKFGNKINLGNFADAVFTDAAFKNVAGIANLPMKAPVMQVLMENCIVSKYLKQFVPDRSVCFVEEGQKFYIVLEDGQKIEVPEDVNKALKATVSDVKHWAGYLTEDGEHVIDLLKPAPGPHFYVNLLIGNRLGFKRTLQTTPKSVVDRFGRGSFRSHAATQVLATRFDMRQEENGFPANRQFYLYEDGKQIFYSALIDDNIVEATCKHSCNRTVIKYKTACNLEITRTIFLVPHKKGFPLATELQRIEIKNASDKARNLSITYTGMFGTGAVHAIFEDVTYTNVIMQSAALYNDKGEFIGITPDYYPEEFKQDTRFVTMIVRNGDEKSFPQSFCTDYNDFVGTGTLEHPAGGCNLNNKLNRKGPGFFALGAPFTVEPGKTVIIDTFTGLSSSKDNENYSDAVMLRELDNLLRYFEKSESVEETLNEIINFHENYGKYFQFNTGNKLFDSGFNRNLAFQVLYQTFMSRSFGQTQKGYREIGFREIQDLFASMYYFINIGYQDFVKELLFEWTANVYKMGYANHNFYWVGKQPGLYSDDSLWLLQAYYRYIIYTKDTSVLNEEVPVADGNNEKRAVRETLKAIIQYSACISVGDHGLPLLDLADWNDCLKIASNSIDGATKEKLYYEQLKKTNGKYGDRFMSDYSESVMNAFLLKLAIDHLAEIATLDNDTQLAQQMSELSKEVTDRIQKHAWKENFFARVLINRYKDGSYTYLGAKGDKLSADPNIDGVYFLNSFAWSVLSDVATDEQIAIMVDVIKKHLLTPYGLRLVTPADLNKIANDTATGHYFFGDRENGAVFKHASMMAVAALIKAAKKVKDNELAKEMARIAYFMIDLVLPYKNLENPFQVAGNPRICTQYINTDTGENIGPLLSGTATWLNLNLISLAGIEYTRDGISFNPILREEETQLNFTLKAPKCSYKFSITKPVGFARMESSEYELFVDGQKIDNTVIPMYTDEKEHIVTLKFK
notes: wild type, GH94, recombinant from Escherichia coli; homodimer
With B1, the Km (commonly the substrate concentration at which the rate is half of its maximum) amounted to 3000 ± 600 µM in data set [1], 1600 ± 200 µM in data set [2] and 9300 ± 1100 µM in data set [3]. In addition, the kcat (commonly the maximal rate divided by the concentration of active sites) in data set [1] was found to be 16.4 ± 0.7 s⁻¹; in data set [2] it was 0.08 ± 0.003 s⁻¹; in data set [3] it was 0.60 ± 0.02 s⁻¹. The kcat/Km (as a rule, the turnover number divided by the Michaelis constant) came out at 5500 M⁻¹ s⁻¹ in data set [1], 50 M⁻¹ s⁻¹ in data set [2] and 60 M⁻¹ s⁻¹ in data set [3].
